Test results: patent publication US20210221867A1 (Novo Nordisk, published 2021)
Positions of bridges follow the written chain, without caps; N, C: chain ends. Non-standard residues stand in square brackets, D forms with d. Nle = CCCC[C@H](N)C(=O)O

How the values were obtained:
human MC4 receptor [1] = biological target: T1, human MC4 receptor (human, UniProt P32245 1-332); assay: cell-based or functional assay
human MC1 receptor [2] = biological target: T2, human MC1 receptor (human, UniProt Q01726 1-317); assay: cell-based or functional assay
T2 sequence (Q01726 whole entry): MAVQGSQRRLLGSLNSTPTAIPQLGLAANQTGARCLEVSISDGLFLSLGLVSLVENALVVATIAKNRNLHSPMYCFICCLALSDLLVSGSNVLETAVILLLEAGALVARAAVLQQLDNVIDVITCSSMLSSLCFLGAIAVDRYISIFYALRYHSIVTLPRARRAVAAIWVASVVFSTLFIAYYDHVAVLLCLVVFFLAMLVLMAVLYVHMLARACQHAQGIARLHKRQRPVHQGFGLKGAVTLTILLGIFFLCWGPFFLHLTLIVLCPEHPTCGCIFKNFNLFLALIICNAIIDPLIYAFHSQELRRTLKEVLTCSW

human MC4 receptor [3] = biological target: T1, human MC4 receptor; assay: SPA competition binding, displacement of 125I-NDP-α-MSH, BHK membranes with human MC4R
Experimental: (§1) The SPA Binding assay was performed in 96-well white opaque plates. Each well contained: 0.5 mg PVT-WGA SPA beads, MC4 receptor expressing membrane diluted to give approximately 10% specific tracer binding, 50.000 dpm ¹²⁵I-NDP-α-MSH and relevant dilutions of test compound. The final volume in each well was 200 μl. […] Plates were incubated overnight (22-24 hours) at room temperature before counting for 2 minutes per well, using a TopCount NXT scintillation counter. Displacement of radio ligand is measured as reduction in light emission from SPA beads, and IC₅₀ values are calculated by nonlinear regression analysis of sigmoidal dose-response curves in GraphPad Prism (GraphPad Software, La Jolla, Calif., USA).

human MC1 receptor [4] = biological target: T2, human MC1 receptor; assay: SPA competition binding, displacement of 125I-NDP-α-MSH, BHK membranes with human MC1R
Experimental: as §1, with “MC1” for “MC4”

T1 sequence (P32245 whole entry): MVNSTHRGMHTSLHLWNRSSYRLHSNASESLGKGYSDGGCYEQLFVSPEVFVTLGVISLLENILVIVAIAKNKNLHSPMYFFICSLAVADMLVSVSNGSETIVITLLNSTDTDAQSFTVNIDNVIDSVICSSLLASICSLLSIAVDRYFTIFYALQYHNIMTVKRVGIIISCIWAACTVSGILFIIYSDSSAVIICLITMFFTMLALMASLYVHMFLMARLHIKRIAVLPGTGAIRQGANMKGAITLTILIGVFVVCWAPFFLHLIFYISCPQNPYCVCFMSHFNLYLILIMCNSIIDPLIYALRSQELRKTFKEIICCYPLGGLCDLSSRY

B1: Ac-Arg-c[Cys-Pro-His-D-Phe-His-Trp-Cys]-Pro-Pro-D-Arg-Glu-Nle-D-Arg-D-Arg-NH2 (peptide)
peptide: Ac-RCPH[dF]HWCPP[dR]E[Nle][dR][dR]-NH2
modifications: disulfide 2-8
SMILES: CCCC[C@H](NC(=O)[C@H](CCC(=O)O)NC(=O)[C@@H](CCCNC(=N)N)NC(=O)[C@@H]1CCCN1C(=O)[C@@H]1CCCN1C(=O)[C@@H]1CSSC[C@H](NC(=O)[C@H](CCCNC(=N)N)NC(C)=O)C(=O)N2CCC[C@H]2C(=O)N[C@@H](Cc2c[nH]cn2)C(=O)N[C@H](Cc2ccccc2)C(=O)N[C@@H](Cc2c[nH]cn2)C(=O)N[C@@H](Cc2c[nH]c3ccccc23)C(=O)N1)C(=O)N[C@H](CCCNC(=N)N)C(=O)N[C@H](CCCNC(=N)N)C(N)=O
notes: Synthetic cyclic peptide; also called Chem. 5
MC4R cAMP EC50 (human MC4 receptor [1]): 0.22 nM | MC1R cAMP EC50 (human MC1 receptor [2]): 172 nM | IC50 (human MC4 receptor [3]): 0.23 nM | IC50 (human MC1 receptor [4]): 39.7 nM
